± gives the standard deviation of the averaged measurements.
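Note: ATP exposure 15 min at 22 °C before imaging.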

The data set relates to ATP. Kind of data set: switch fluorescence ratio, 500 uM ATP over buffer (Cy3 cluster intensity, sum of 5 cycles each) (fold (ratio)); higher = stronger signal-on switching upon ATP binding; sequences stand for … in TCGTCGGCAGCGTCAGATGTGTATAAGAGACAGTTTTTTTTTTTTTTTTTTTTTTTTT…TC. As to conditions: aptamer strand: ATP DNA aptamer (quencher-CACCTGGGGGAGTATTGCGGAGGAAGG + anchor), 100 nM annealed; ATP concentration: 500 uM. The method, boiled down:
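Cy3-labelled switching-strand clusters on a modified Illumina MiSeq flow-cell were annealed to 100 nM quencher-labelled ATP aptamer and imaged first in selection buffer, then after 15 min with 500 uM ATP at 22 °C. NaOH stripping and re-annealing separated each of five buffer/ATP cycles, and clusters outside 100-1000 RFU were excluded. The fluorescence ratio sums target-cycle Cy3 intensity over buffer-cycle Cy3 intensity per cluster and averages it per switch-domain sequence.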
For the sequence GAGCTACGTA, the switch fluorescence ratio was 1.04 ± 0.026.

For CGGTTTAGGC, the switch fluorescence ratio was determined as 0.93 ± 0.026.

Regarding GATACATCGG, the switch fluorescence ratio was determined as 1.03 ± 0.018.

Turning to AGCCGAGTGC, the switch fluorescence ratio is 1.02 ± 0.06.

In the case of TAATGTTGCA, the switch fluorescence ratio came out at 1.02 ± 0.029.

ACTGAGTTTG: the switch fluorescence ratio worked out at 1 ± 0.016.

Regarding TGGTGTTGGG, the switch fluorescence ratio turned out to be 0.983 ± 0.015.

With TAGGCGCTAG, the switch fluorescence ratio amounted to 0.999 ± 0.011.

For the sequence GAGGCTCGGA, the switch fluorescence ratio amounted to 0.982 ± 0.029.

Turning to GCGTAACTTC, the switch fluorescence ratio is 1.01 ± 0.044.

For the sequence GAGAGGGGCA, the switch fluorescence ratio worked out at 0.999 ± 0.018.

In the case of ACACGATGCC, the switch fluorescence ratio is 1 ± 0.043.

With TTTCGGGACG, the switch fluorescence ratio stood at 0.987 ± 0.035.

For the sequence GGAAATATAG, the switch fluorescence ratio worked out at 0.989 ± 0.012.

On to CATATCCAGG, for which the switch fluorescence ratio was 1.34 ± 0.017.

For TATGGTATCT, the switch fluorescence ratio was found to be 0.994 ± 0.024.

With CACTGGCATG, the switch fluorescence ratio was 0.998 ± 0.029.

As for AGGGACGTAG, the switch fluorescence ratio was 1.05 ± 0.026.

Regarding GGGATGACGA, the switch fluorescence ratio was 0.98 ± 0.042.

On to TTTATTTTTT, for which the switch fluorescence ratio amounted to 1 ± 0.039.

ATCATGTTAT: the switch fluorescence ratio turned out to be 0.986 ± 0.011.

With CCCGGGGGAA, the switch fluorescence ratio turned out to be 1.03 ± 0.014.

With TAAAATTCGA, the switch fluorescence ratio is 0.9784 ± 0.0059.

Regarding TTTATAGACT, the switch fluorescence ratio amounted to 1.02 ± 0.0016.

Turning to TATGGATTGG, the switch fluorescence ratio turned out to be 0.977 ± 0.029.

Regarding TTTATTGTCA, the switch fluorescence ratio is 0.987 ± 0.029.

With GGACTAGCTT, the switch fluorescence ratio is 1.03 ± 0.032.

As to AGATTATTGA, the switch fluorescence ratio turned out to be 0.943 ± 0.031.

On to CGCAGGGAGT, for which the switch fluorescence ratio was 1.041 ± 0.01.

Take GGTTAGGGGA: the switch fluorescence ratio came out at 0.994 ± 0.036.

Take AAGTCGAAGT: the switch fluorescence ratio amounted to 0.98568 ± 0.00082.

As for TTTTAACTAA, the switch fluorescence ratio was determined as 1.005 ± 0.0046.

Regarding CCGGTTATGA, the switch fluorescence ratio was 1.04 ± 0.02.

TCGGTGTCCG: the switch fluorescence ratio was found to be 1.03 ± 0.055.

On to TACGCGATTT, for which the switch fluorescence ratio was found to be 1.09 ± 0.08.

GGCGGCATCT: the switch fluorescence ratio was 1.01 ± 0.023.

On to CATAAAGGAT, for which the switch fluorescence ratio was found to be 0.97 ± 0.011.

Turning to AAGCGTTGTA, the switch fluorescence ratio is 1.01 ± 0.02.

As to TTTTATGTCA, the switch fluorescence ratio worked out at 1.03 ± 0.051.

Turning to CTGGGTTTGT, the switch fluorescence ratio worked out at 0.981 ± 0.016.

For the sequence AGGCAGGTAC, the switch fluorescence ratio amounted to 1.246 ± 0.0051.

With AGGCAAAGTT, the switch fluorescence ratio worked out at 0.989 ± 0.026.

For the sequence TACACTTCTC, the switch fluorescence ratio is 1.08 ± 0.025.

As for CGAGGGACCC, the switch fluorescence ratio is 1.01 ± 0.044.

As to TTTTGCATTG, the switch fluorescence ratio was 1.07 ± 0.058.

As to AAGCCAAGGT, the switch fluorescence ratio was found to be 1.033 ± 0.0084.

With TTGGGTGCTG, the switch fluorescence ratio came to 1.01 ± 0.032.

Turning to ATGATTTATT, the switch fluorescence ratio came to 1 ± 0.011.

On to ACAGTTCTTG, for which the switch fluorescence ratio came out at 0.997 ± 0.023.

Regarding TCATACTTTT, the switch fluorescence ratio was 1.01 ± 0.026.

On to TAAAAATTGC, for which the switch fluorescence ratio stood at 1.02 ± 0.048.

As for TTCTATGGCA, the switch fluorescence ratio turned out to be 0.984 ± 0.043.

In the case of TCCCCGGTCA, the switch fluorescence ratio was 1.09 ± 0.15.

On to TTCTAGGGGG, for which the switch fluorescence ratio was 1.02 ± 0.056.

For the sequence GATGGGAAGT, the switch fluorescence ratio amounted to 1.01 ± 0.024.

On to CGCCATGGCC, for which the switch fluorescence ratio was 0.9924 ± 0.0066.

As to CAAGATAGGG, the switch fluorescence ratio came to 1.01 ± 0.026.

Take GGGTTCGTGG: the switch fluorescence ratio came to 0.997 ± 0.031.

Turning to GGGGTGAGAA, the switch fluorescence ratio amounted to 1.02 ± 0.046.

Take ATGTCGGTTT: the switch fluorescence ratio was 1.02 ± 0.026.

For GGCGGCCGAT, the switch fluorescence ratio was found to be 0.9707 ± 0.005.

For TAACAGGTAT, the switch fluorescence ratio is 1 ± 0.046.

With TTAATGCTGG, the switch fluorescence ratio was found to be 1 ± 0.033.

Take TTACCATTCG: the switch fluorescence ratio amounted to 1.02 ± 0.019.

As for AAAGGATCGG, the switch fluorescence ratio is 0.9923 ± 0.0056.

As to GGGAATAGT, the switch fluorescence ratio was 0.9898 ± 0.0014.

Values taken from the supplement of paper PMC10126150.
